B1: β-catenin (natural protein, murine, UniProt Q02248 1-781, looked up)
chain: MATQADLMELDMAMEPDRKAAVSHWQQQSYLDSGIHSGATTTAPSLSGKGNPEEEDVDTSQVLYEWEQGFSQSFTQEQVADIDGQYAMTRAQRVRAAMFPETLDEGMQIPSTQFDAAHPTNVQRLAEPSQMLKHAVVNLINYQDDAELATRAIPELTKLLNDEDQVVVNKAAVMVHQLSKKEASRHAIMRSPQMVSAIVRTMQNTNDVETARCTAGTLHNLSHHREGLLAIFKSGGIPALVKMLGSPVDSVLFYAITTLHNLLLHQEGAKMAVRLAGGLQKMVALLNKTNVKFLAITTDCLQILAYGNQESKLIILASGGPQALVNIMRTYTYEKLLWTTSRVLKVLSVCSSNKPAIVEAGGMQALGLHLTDPSQRLVQNCLWTLRNLSDAATKQEGMEGLLGTLVQLLGSDDINVVTCAAGILSNLTCNNYKNKMMVCQVGGIEALVRTVLRAGDREDITEPAICALRHLTSRHQEAEMAQNAVRLHYGLPVVVKLLHPPSHWPLIKATVGLIRNLALCPANHAPLREQGAIPRLVQLLVRAHQDTQRRTSMGGTQQQFVEGVRMEEIVEGCTGALHILARDVHNRIVIRGLNTIPLFVQLLYSPIENIQRVAAGVLCELAQDKEAAEAIEAEGATAPLTELLHSRNEGVATYAAAVLFRMSEDKPQDYKKRLSVELTSSLFRTEPMAWNETADLGLDIGAQGEALGYRQDDPSYRSFHSGGYGQDALGMDPMMEHEMGGHHPGADYPVDGLPDLGHAQDLMDGLPPGDSNQLAWFDTDL
notes: β-catenin, murine; also called murine β-catenin
B2: β-catenin•Ecyto complex (complex)
chain 1: B1 chain
chain 2: not shown
notes: β-catenin, murine; cytoplasmic domain of E-cadherin (Ecyto); also called E-cadherin•β-catenin complex; cadherin•β-catenin
B3: αE-catenin 82–883 (C116S) (domain or fragment, murine, UniProt P26231 82-883, looked up)
chain: ESQFLKEELVVAVEDVRKQGDLMKSAAGEFADDPSSSVKRGNMVRAARALLSAVTRLLILADMADVYKLLVQLKVVEDGILKLRNAGNEQDLGIQYKALKPEVDKLNIMAAKRQQELKDVGNRDQMAAARGILQKNVPILYTASQACLQHPDVAAYKANRDLIYKQLQQAVTGISNAAQATASDDAAQHQGGSGGELAYALNNFDKQIIVDPLSFSEERFRPSLEERLESIISGAALMADSSCTRDDRRERIVAECNAVRQALQDLLSEYMGNAGRKERSDALNSAIDKMTKKTRDLRRQLRKAVMDHVSDSFLETNVPLLVLIEAAKNGNEKEVKEYAQVFREHANKLIEVANLACSISNNEEGVKLVRMSASQLEALCPQVINAALALAAKPQSKLAQENMDLFKEQWEKQVRVLTDAVDDITSIDDFLAVSENHILEDVNKCVIALQEKDVDGLDRTAGAIRGRAARVIHVVTSEMDNYEPGVYTEKVLEATKLLSNTVMPRFTEQVEAAVEALSSDPAQPMDENEFIDASRLVYDGIRDIRKAVLMIRTPEELDDSDFETEDFDVRSRTSVQTEDDQLIAGQSARAIMAQLPQEQKAKIAEQVASFQEEKSKLDAEVSKWDDSGNDIIVLAKQMCMIMMEMTDFTRGKGPLKNTSDVISAAKKIAEAGSRMDKLGRTIADHCPDSACKQDLLAYLQRIALYCHQLNICSKVKAEVQNLGGELVVSGVDSAMSLIQAAKNLMNAVVQTVKASYVASTKYQKSQGMASLNLPAVSWKMKAPEKKPLVKREKQDETQTKIK
notes: Crystallised as a homodimer; source: E. coli BL21, purified (glutathione-agarose, TEV cleavage, Mono Q, SEC); not shown: GST, N-terminal, cleaved
B4: αE-catenin R551A (full-length) (natural protein, murine, UniProt P26231 1-906, looked up)
chain: MTAVHAGNINFKWDPKSLEIRTLAVERLLEPLVTQVTTLVNTNSKGPSNKKRGRSKKAHVLAASVEQATENFLEKGDKIAKESQFLKEELVVAVEDVRKQGDLMKSAAGEFADDPCSSVKRGNMVRAARALLSAVTRLLILADMADVYKLLVQLKVVEDGILKLRNAGNEQDLGIQYKALKPEVDKLNIMAAKRQQELKDVGNRDQMAAARGILQKNVPILYTASQACLQHPDVAAYKANRDLIYKQLQQAVTGISNAAQATASDDAAQHQGGSGGELAYALNNFDKQIIVDPLSFSEERFRPSLEERLESIISGAALMADSSCTRDDRRERIVAECNAVRQALQDLLSEYMGNAGRKERSDALNSAIDKMTKKTRDLRRQLRKAVMDHVSDSFLETNVPLLVLIEAAKNGNEKEVKEYAQVFREHANKLIEVANLACSISNNEEGVKLVRMSASQLEALCPQVINAALALAAKPQSKLAQENMDLFKEQWEKQVRVLTDAVDDITSIDDFLAVSENHILEDVNKCVIALQEKDVDGLDRTAGAIRGRAAAVIHVVTSEMDNYEPGVYTEKVLEATKLLSNTVMPRFTEQVEAAVEALSSDPAQPMDENEFIDASRLVYDGIRDIRKAVLMIRTPEELDDSDFETEDFDVRSRTSVQTEDDQLIAGQSARAIMAQLPQEQKAKIAEQVASFQEEKSKLDAEVSKWDDSGNDIIVLAKQMCMIMMEMTDFTRGKGPLKNTSDVISAAKKIAEAGSRMDKLGRTIADHCPDSACKQDLLAYLQRIALYCHQLNICSKVKAEVQNLGGELVVSGVDSAMSLIQAAKNLMNAVVQTVKASYVASTKYQKSQGMASLNLPAVSWKMKAPEKKPLVKREKQDETQTKIKRASQKKHVNPVQALSEFKAMDSI
notes: αE-catenin, murine, full length, with the point mutation R551A; Used in ITC (monomer in the cell); also called R551A αE-catenin; R551A mutant; source: E. coli BL21, purified (glutathione-agarose, TEV cleavage, Mono Q, SEC); monomer used; not shown: GST, N-terminal, cleaved
B5: vinculin D1 domain (residues 1–259) (domain or fragment, chicken, UniProt P12003 1-259, looked up)
chain: MPVFHTRTIESILEPVAQQISHLVIMHEEGEVDGKAIPDLTAPVSAVQAAVSNLVRVGKETVQTTEDQILKRDMPPAFIKVENACTKLVRAAQMLQADPYSVPARDYLIDGSRGILSGTSDLLLTFDEAEVRKIIRVCKGILEYLTVAEVVETMEDLVTYTKNLGPGMTKMAKMIDERQQELTHQEHRVMLVNSMNTVKELLPVLISAMKIFVTTKNTKSQGIEEALKNRNFTVEKMSAEINEIIRVLQLTSWDEDAWA
notes: vinculin D1 domain, residues 1–259; the methods name chicken vinculin just before it

How the values were obtained:
[1] = biological target: B4; experiment: ITC; VP-ITC; αE-catenin monomer (or its complex) in the cell at 8–11 μM, binding partner injected at 70–155 μM; 20 mM HEPES pH 8.0, 150 mM NaCl, 1 mM DTT; 25 °C; settings: both partners purified
[2] = biological target: the molecule itself; experiment: crystal structure; αE-catenin 82–883 (C116S) dimer, 4.0 Å, crystals not dehydrated
β-catenin•Ecyto complex = biological target: B2; experiment: ITC; VP-ITC; αE-catenin monomer (or its complex) in the cell at 8–11 μM, binding partner injected at 70–155 μM; 20 mM HEPES pH 8.0, 150 mM NaCl, 1 mM DTT; 25 °C; settings: both partners purified
[3] = biological target: T1, αE-catenin R551A•β-catenin•Ecyto complex (murine | , UniProt P26231 1-906; Q02248 1-781; P09803 734-884, R551A); experiment: as above; settings: both partners purified
T1 construct: αE-catenin, murine, full length, with the point mutation R551A; β-catenin, murine; cytoplasmic domain of E-cadherin (Ecyto); Ternary complex placed in the ITC cell; also called ternary E-cadherin•β-catenin•αE-catenin R551A mutant complex; source: αE-catenin R551A: E. coli BL21, purified; not shown: GST, N-terminal, cleaved; copies: + +
T1 sequence (P09803 734-884, stated change not applied, one chain of several): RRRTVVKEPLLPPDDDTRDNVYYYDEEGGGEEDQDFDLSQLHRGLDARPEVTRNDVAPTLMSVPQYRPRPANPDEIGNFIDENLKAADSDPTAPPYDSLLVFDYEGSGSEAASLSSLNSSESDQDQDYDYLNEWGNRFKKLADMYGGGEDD

Chain of β-catenin•Ecyto complex (P09803 734-884, one chain of several): as the sequence (P09803 734-884, stated change not applied, one chain of several) above

Row | Kd [1] | dH [1] | Binder | also measured
1 | 78 nM | -33.3 kcal/mol | B1 | –
2 | – | -32.3 kcal/mol | B2 | –
3 | – | – | B3 | binding result [2]: binds
4 | – | – | B4 | Kd (β-catenin•Ecyto complex): 14 nM
5 | 4.1 nM | 7.7 kcal/mol | B5 | Kd [3]: 26 nM; dH [3]: 6.7 kcal/mol
